Assay results: PMC2840394

Target: AL-12 variable domain (VL), amyloidogenic immunoglobulin kappa light chain of the κI O18/O8 germline (human (patient AL-12))
Assay: crystal structure

A stoichiometry N of 2 was found for “AL-12 variable domain (VL), amyloidogenic immunoglobulin kappa light chain of the κI O18/O8 germline (domain or fragment)” in this work.
